Results: patent US20250215039A1, “NUCLEOSIDES FOR TREATING CANCER” (PRIMEFOUR THERAPEUTICS, INC., priority 2022, published 2025)

Assays:
Test in all cases: not read
Details in all cases: other: substrate of human CDA, 37° C., Michaelis Menten fit, pH 7.5
[1] = substrate: C[C@]1(CO)O[C@@H](n2ccc(N)nc2=O)[C@@H](O)[C@@H]1O
[2] = substrate: C[C@]1(CO)O[C@@H](n2cc(F)c(N)nc2=O)[C@@H](O)[C@@H]1O
[3] = substrate: C[C@]1(CO)O[C@@H](n2cc(F)c(N)nc2=O)C[C@@H]1O
[4] = substrate: Nc1ccn([C@@H]2O[C@H](CO)[C@@H](O)C2(F)F)c(=O)n1

B1: human cytidine deaminase (CDA) (Homo sapiens) (protein)
chain: MAQKRPACTLKPECVQQLLVCSQEAKKSAYCPYSHFPVGAALLTQEGRIFKGCNIENACYPLGICAERTAIQKAVSEGYKDFRAIAIASDMQDDFISPCGACRQVMREFGTNWPVYMTKPDGTYIVMTVQELLPSSFGPEDLQKTQ
- Km [1]: 196 µM
- kcat [1]: 2.8 s⁻¹
- kcat/Km [1]: 16000 M⁻¹ s⁻¹
- Km [2]: 1057.8 µM
- kcat [2]: 6.1 s⁻¹
- kcat/Km [2]: 5000 M⁻¹ s⁻¹
- Km [3]: 1003 µM
- kcat [3]: 13.3 s⁻¹
- kcat/Km [3]: 23000 M⁻¹ s⁻¹
- Km [4]: 520.8 µM
- kcat [4]: 26.8 s⁻¹
- kcat/Km [4]: 0.53 (M^−1s^−1) × 10^5
